Experimental data published in the Immune Epitope Database (IEDB).

Assays:
HLA-A*02:01 [1] = experiment: IEDB peptide-MHC binding, purified MHC/direct/fluorescence; filed as Kd, often an IC50 or EC50 that approximates it; ≥ and ≤ were set here for values at or beyond the usual limits of such assays
HLA-A*26:01 [2] = experiment: as above
HLA-A*01:01 = experiment: as above
HLA-B*27:05 = experiment: as above
HLA-A*24:03 = experiment: as above
HLA-A*11:01 = experiment: as above
HLA-B*08:01 [3] = experiment: as above; settings: source organism: Vibrio cholerae
HLA-A*03:01 = experiment: as above
HLA-B*07:02 = experiment: as above; settings: source organism: Vibrio cholerae
HLA-A*69:01 [4] = experiment: as above
HLA-B*58:01 = experiment: as above
HLA-A*31:01 = experiment: as above
HLA-B*15:01 [5] = experiment: as above
HLA-B*44:02 = experiment: as above; settings: source organism: Vibrio cholerae
HLA-B*40:01 = experiment: as above
HLA-A*02:50 = experiment: IEDB peptide-MHC binding, purified MHC/competitive/fluorescence; filed as Kd, often an IC50 or EC50 that approximates it; ≥ and ≤ were set here for values at or beyond the usual limits of such assays
HLA-C*14:02 = experiment: IEDB peptide-MHC binding, purified MHC/direct/fluorescence; filed as Kd, often an IC50 or EC50 that approximates it; ≥ and ≤ were set here for values at or beyond the usual limits of such assays; settings: source organism: Vibrio vulnificus YJ016
HLA-C*04:01 = experiment: as above
HLA-A*30:01 [6] = experiment: IEDB peptide-MHC binding, purified MHC/competitive/fluorescence; filed as Kd, often an IC50 or EC50 that approximates it; ≥ and ≤ were set here for values at or beyond the usual limits of such assays; settings: source organism: Human immunodeficiency virus 1
HLA-C*12:03 = experiment: IEDB peptide-MHC binding, purified MHC/direct/fluorescence; filed as Kd, often an IC50 or EC50 that approximates it; ≥ and ≤ were set here for values at or beyond the usual limits of such assays; settings: source organism: Mycobacterium tuberculosis variant bovis BCG str. Pasteur 1173P2
HLA-C*03:03 = experiment: as above
HLA-C*08:02 = experiment: as above
HLA-B*08:01 [7] = experiment: IEDB peptide-MHC binding, purified MHC/competitive/fluorescence; filed as Kd, often an IC50 or EC50 that approximates it; ≥ and ≤ were set here for values at or beyond the usual limits of such assays; settings: source organism: Influenza A virus (A/Harbin/1/1988(H1N2))
HLA-A*02:19 = experiment: IEDB peptide-MHC binding, purified MHC/direct/fluorescence; filed as Kd, often an IC50 or EC50 that approximates it; ≥ and ≤ were set here for values at or beyond the usual limits of such assays
HLA-A*02:16 = experiment: as above
HLA-A*02:12 = experiment: as above
HLA-A*23:01 = experiment: as above
HLA-A*02:11 = experiment: as above
HLA-A*68:02 = experiment: as above
HLA-A*29:02 = experiment: as above; settings: source organism: Zaire ebolavirus
HLA-A*02:03 = experiment: as above
HLA-B*57:01 = experiment: IEDB peptide-MHC binding, purified MHC/competitive/fluorescence; filed as Kd, often an IC50 or EC50 that approximates it; ≥ and ≤ were set here for values at or beyond the usual limits of such assays; settings: source organism: Zaire ebolavirus
HLA-A*02:01 [8] = experiment: as above
HLA-A*26:01 [9] = experiment: as above
HLA-B*46:01 = experiment: as above; settings: source organism: Zaire ebolavirus
HLA-B*51:01 = experiment: as above
HLA-B*27:03 = experiment: as above
HLA-B*18:01 = experiment: as above
HLA-A*69:01 [10] = experiment: as above
HLA-B*15:01 [11] = experiment: as above; settings: source organism: Zaire ebolavirus
HLA-B*39:01 = experiment: as above
HLA-C*05:01 = experiment: IEDB peptide-MHC binding, purified MHC/direct/fluorescence; filed as Kd, often an IC50 or EC50 that approximates it; ≥ and ≤ were set here for values at or beyond the usual limits of such assays; settings: source organism: Brucella abortus S19
HLA-A*30:01 [12] = experiment: as above; settings: source organism: Kurkino virus
[13] = source organism: Vibrio cholerae
[14] = source organism: Mycobacterium tuberculosis variant bovis BCG str. Pasteur 1173P2
[15] = source organism: Haemophilus influenzae
[16] = source organism: Zaire ebolavirus
[17] = source organism: Cryptosporidium parvum Iowa II
[18] = source organism: Bacillus anthracis str. A0193
[19] = source organism: Brucella abortus 2308
[20] = source organism: Orthohantavirus dobravaense

ALYWALMES
Kd (HLA-A*02:01 [1]; [13]): 0.021 µM
Kd (HLA-A*26:01 [2]; [13]): ≥ 20 µM
Kd (HLA-A*01:01; [13]): ≥ 20 µM
Kd (HLA-B*27:05; [13]): ≥ 20 µM
Kd (HLA-A*24:03; [13]): ≥ 20 µM
Kd (HLA-A*11:01; [13]): ≥ 20 µM
Kd (HLA-B*08:01 [3]): ≥ 20 µM
Kd (HLA-A*03:01; [13]): ≥ 20 µM
Kd (HLA-B*07:02): ≥ 20 µM
Kd (HLA-A*69:01 [4]; [13]): ≥ 20 µM
Kd (HLA-B*58:01; [13]): ≥ 20 µM
Kd (HLA-A*31:01; [13]): ≥ 20 µM
Kd (HLA-B*15:01 [5]; [13]): ≥ 20 µM
Kd (HLA-B*44:02): ≥ 20 µM
Kd (HLA-B*40:01; [13]): ≥ 20 µM
Kd (HLA-A*02:50; source organism: Vibrio cholerae 2740-80): 0.0002 µM

AYFLEAQEM
Kd (HLA-A*24:03; source organism: Vibrio vulnificus): 0.0036 µM
Kd (HLA-C*14:02): ≤ 0.001 µM
Kd (HLA-C*04:01; source organism: Vibrio vulnificus YJ016): ≥ 20 µM

EELRSLYNTV
Kd (HLA-A*30:01 [6]): ≥ 20 µM

FLADYGWRL
Kd (HLA-C*12:03): 0.413 µM
Kd (HLA-C*03:03; [14]): 0.026 µM
Kd (HLA-A*69:01 [4]; source organism: Mycobacterium tuberculosis): 0.663 µM
Kd (HLA-C*08:02; [14]): 0.057 µM

FLADYRGKT
Kd (HLA-A*02:01 [1]; [15]): 1.36 µM
Kd (HLA-A*26:01 [2]; [15]): ≥ 20 µM
Kd (HLA-A*01:01; [15]): ≥ 20 µM
Kd (HLA-B*27:05; [15]): ≥ 20 µM
Kd (HLA-A*11:01; [15]): ≥ 20 µM
Kd (HLA-A*03:01; [15]): ≥ 20 µM
Kd (HLA-A*69:01 [4]; [15]): ≥ 20 µM
Kd (HLA-B*58:01; [15]): ≥ 20 µM
Kd (HLA-A*31:01; [15]): ≥ 20 µM
Kd (HLA-B*15:01 [5]; [15]): ≥ 20 µM
Kd (HLA-B*40:01; [15]): ≥ 20 µM
Kd (HLA-A*02:50; source organism: Haemophilus influenzae R2846): 0.0019 µM

IAPWYAFAL
Kd (HLA-C*08:02; source organism: Influenza A virus (A/Harbin/1/1988(H1N2))): 3.34 µM
Kd (HLA-B*08:01 [7]): 7.56 µM

LTDRELLLL
Kd (HLA-A*02:19; [16]): ≥ 20 µM
Kd (HLA-A*02:16; [16]): ≥ 20 µM
Kd (HLA-A*02:12; [16]): ≥ 20 µM
Kd (HLA-A*01:01; source organism: Sudan ebolavirus - Uganda (2000)): 0.255 µM
Kd (HLA-A*23:01; [16]): ≥ 20 µM
Kd (HLA-A*24:03; [16]): ≥ 20 µM
Kd (HLA-A*02:11; [16]): ≥ 20 µM
Kd (HLA-A*68:02; [16]): ≥ 20 µM
Kd (HLA-A*03:01; [16]): ≥ 20 µM
Kd (HLA-A*29:02): ≥ 20 µM
Kd (HLA-A*02:03; [16]): ≥ 20 µM
Kd (HLA-B*57:01): ≥ 20 µM
Kd (HLA-A*02:01 [8]; [16]): ≥ 20 µM
Kd (HLA-A*26:01 [9]; [16]): ≥ 20 µM
Kd (HLA-B*46:01): ≥ 20 µM
Kd (HLA-B*51:01; [16]): ≥ 20 µM
Kd (HLA-B*27:03; [16]): ≥ 20 µM
Kd (HLA-B*18:01; [16]): ≥ 20 µM
Kd (HLA-A*69:01 [10]; [16]): ≥ 20 µM
Kd (HLA-B*15:01 [11]): ≥ 20 µM
Kd (HLA-B*39:01; [16]): ≥ 20 µM

MSQMPPHPY
Kd (HLA-A*02:19; [17]): ≥ 20 µM
Kd (HLA-A*02:16; [17]): ≥ 20 µM
Kd (HLA-A*02:12; [17]): ≥ 20 µM
Kd (HLA-A*23:01; [17]): ≥ 20 µM
Kd (HLA-A*24:03; [17]): ≥ 20 µM
Kd (HLA-A*11:01; [17]): 0.377 µM
Kd (HLA-A*02:11; [17]): ≥ 20 µM
Kd (HLA-A*68:02; [17]): ≥ 20 µM
Kd (HLA-A*03:01; [17]): ≥ 20 µM
Kd (HLA-A*02:03; [17]): ≥ 20 µM
Kd (HLA-A*02:01 [8]; [17]): ≥ 20 µM
Kd (HLA-A*26:01 [9]; [17]): ≥ 20 µM
Kd (HLA-B*51:01; [17]): ≥ 20 µM
Kd (HLA-B*27:03; [17]): ≥ 20 µM
Kd (HLA-B*18:01; [17]): ≥ 20 µM
Kd (HLA-A*69:01 [10]; [17]): ≥ 20 µM
Kd (HLA-B*39:01; [17]): ≥ 20 µM

YAIYTLGEM
Kd (HLA-C*03:03; [18]): ≤ 0.001 µM
Kd (HLA-C*04:01; [18]): ≥ 20 µM

YVDIIGLSV
Kd (HLA-A*02:01 [1]; [19]): 0.056 µM
Kd (HLA-A*02:12; source organism: Brucella suis 1330): 0.005 µM
Kd (HLA-C*05:01): 0.002 µM
Kd (HLA-A*69:01 [4]; [19]): 0.0085 µM
Kd (HLA-A*02:50; source organism: Brucella abortus S19): 0.0091 µM

YYTEDQGQF
Kd (HLA-A*23:01; [20]): 0.0135 µM
Kd (HLA-A*24:03; [20]): 0.0014 µM
Kd (HLA-C*04:01; source organism: Kurkino virus): ≥ 20 µM
Kd (HLA-A*30:01 [12]): ≥ 20 µM
